The record followed here is FireProtDB (doi:10.1016/j.bpj.2010.04.076).

B1: Adenylate kinase, P16304 (parent)
chain: MNLVLMGLPGAGKGTQGERIVEDYGIPHISTGDMFRAAMKEETPLGLEAKSYIDKGELVPDEVTIGIVKERLGKDDCERGFLLDGFPRTVAQAEALEEILEEYGKPIDYVINIEVDKDVLMERLTGRRICSVCGTTYHLVFNPPKTPGICDKDGGELYQRADDNEETVSKRLEVNMKQTQPLLDFYSEKGYLANVNGQQDIQDVYADVKDLLGGLKK

Variants of B1 are the subject of the data set. The following applies: Bacillus subtilis (strain 168), pH 7, CD, transition: 2, reversible: yes, structure 2EU8, whole UniProt chain shown; for ddG of mutation (higher = less stable) / unfolding free energy: 20 °C, GdnHCl, Phosphate buffer 10mM; for Tm / change of melting temperature, mutant - wild type (higher = more stable): Thermal, KH2PO4 10mM.

Usually Tm stands for the temperature at which the thermal transition is half complete.

As to Q199R Q16L, the “ddG of mutation (higher = less stable)” value is -3.35 kcal/mol; the unfolding free energy worked out at 6.69 kcal/mol; the Tm came to 63.3 °C; the “change of melting temperature, mutant - wild type (higher = more stable)” value (“change of melting temperature, mutant” for short) is 14.9 °C.
As to Q199R G213E, the “ddG of mutation (higher = less stable)” value is -1.68 kcal/mol; the unfolding free energy turned out to be 5.02 kcal/mol; the Tm is 51.4 °C; the “change of melting temperature, mutant” value was determined as 3 °C.
Q199R G213A: the Tm is 37.9 °C and the “change of melting temperature, mutant” value was -10.5 °C.
Q199R G213Q: the Tm was 39.3 °C and the “change of melting temperature, mutant” value was -9.1 °C.
As for Q199R T179I, the “ddG of mutation (higher = less stable)” value is -2.4 kcal/mol; the unfolding free energy was determined as 5.74 kcal/mol; the Tm was determined as 53.3 °C; the “change of melting temperature, mutant” value is 4.9 °C.
Regarding Q199R G214K, the Tm was 48.4 °C and the “change of melting temperature, mutant” value was found to be 0 °C.
In the case of Q199R G214R, the “ddG of mutation (higher = less stable)” value was -2.63 kcal/mol; the unfolding free energy turned out to be 5.97 kcal/mol; the Tm amounted to 53.4 °C; the “change of melting temperature, mutant” value amounted to 5 °C.
On to Q199R G214A, for which the Tm turned out to be 49.1 °C and the “change of melting temperature, mutant” value amounted to 0.7 °C.
Turning to T179I, the Tm came out at 47.8 °C and the “change of melting temperature, mutant” value was -0.6 °C.
Turning to Q199R, the “ddG of mutation (higher = less stable)” value is -0.48 kcal/mol; the unfolding free energy is 3.82 kcal/mol; the Tm was 49.5 °C; the “change of melting temperature, mutant” value stood at 1.1 °C.
With G214R, the Tm came to 49.8 °C and the “change of melting temperature, mutant” value amounted to 1.4 °C.
On the same counts, the results for A193V are 48.9 °C and 0.5 °C.
As to Q199R A193V, the “ddG of mutation (higher = less stable)” value was -2.87 kcal/mol; the unfolding free energy stood at 6.21 kcal/mol; the midpoint of thermal melting (Tm) stood at 54.6 °C; the “change of melting temperature, mutant” value was 6.2 °C.
